Test [1] has as its target T1, human PRLR (Biacore antigen) (human, UniProt P16471 25-234, limits assumed).
T1 construct: The construct injected over captured antibody is not described (a soluble form is likely); also called huPRLR
T1 sequence: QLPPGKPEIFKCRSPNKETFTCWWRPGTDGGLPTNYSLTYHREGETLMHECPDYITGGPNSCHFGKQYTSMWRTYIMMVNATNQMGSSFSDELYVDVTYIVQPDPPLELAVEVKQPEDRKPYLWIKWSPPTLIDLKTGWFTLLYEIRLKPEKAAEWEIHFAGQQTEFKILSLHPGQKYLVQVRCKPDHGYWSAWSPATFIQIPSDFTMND
Nature of the test: SPR Biacore. Summed up:
(§1)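 Association rate, dissociation rate and dissociation constant were measured by surface plasmon resonance on a Biacore instrument. PRLR antigen was tested at 600 nM, 66.67 nM and 7.41 nM, a 3-point, 9-fold dilution series. Constants came from a 1:1 binding model fit (local Rmax, mass-transport term included) in Biacore T200 Evaluation Software.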
A general note: Surface plasmon resonance follows binding to a sensor surface in real time, without labels.

For test [2], the target named is T2, mouse PRLR on Baf3-mPRLR cells (mouse, UniProt Q08501 20-608).
T2 sequence (looked up): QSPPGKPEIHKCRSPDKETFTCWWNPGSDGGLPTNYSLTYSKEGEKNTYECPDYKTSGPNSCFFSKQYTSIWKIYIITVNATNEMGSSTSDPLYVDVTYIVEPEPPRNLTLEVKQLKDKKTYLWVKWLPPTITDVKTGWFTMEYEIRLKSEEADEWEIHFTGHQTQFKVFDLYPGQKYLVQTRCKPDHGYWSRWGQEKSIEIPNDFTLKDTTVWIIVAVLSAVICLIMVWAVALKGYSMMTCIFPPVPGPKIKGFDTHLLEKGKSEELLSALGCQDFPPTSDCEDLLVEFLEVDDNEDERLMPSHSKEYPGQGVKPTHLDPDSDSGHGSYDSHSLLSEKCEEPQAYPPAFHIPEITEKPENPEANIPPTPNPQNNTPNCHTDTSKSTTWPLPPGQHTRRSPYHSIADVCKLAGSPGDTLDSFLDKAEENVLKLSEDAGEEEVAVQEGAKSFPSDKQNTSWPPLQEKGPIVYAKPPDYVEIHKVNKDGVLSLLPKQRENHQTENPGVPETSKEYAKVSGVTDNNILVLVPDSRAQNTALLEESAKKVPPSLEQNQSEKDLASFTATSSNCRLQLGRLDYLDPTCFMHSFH
Nature of the test: cell-based or functional assay.

Test [3] addresses cyno PRLR on Baf3-cyPRLR cells (cyno). Nature of the test: cell-based or functional assay.
In test [4] the target is T3, murine PRLR (Biacore antigen) (murine, UniProt Q08501 20-229, limits assumed).
T3 construct: also called muPRLR
T3 sequence (looked up): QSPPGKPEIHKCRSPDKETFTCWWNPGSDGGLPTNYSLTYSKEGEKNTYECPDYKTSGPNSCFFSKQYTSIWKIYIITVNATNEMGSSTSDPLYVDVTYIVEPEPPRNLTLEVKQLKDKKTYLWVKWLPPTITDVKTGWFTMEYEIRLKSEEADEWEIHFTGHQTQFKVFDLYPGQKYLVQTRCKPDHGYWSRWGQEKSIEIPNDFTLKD
The experiment in a line: SPR Biacore. The gist of the method:
as §1

The target in test [5] is T4, cyno PRLR (Biacore antigen) (cyno, UniProt A0A2K5WXK1 25-234).
T4 construct: also called cyPRLR
T4 sequence: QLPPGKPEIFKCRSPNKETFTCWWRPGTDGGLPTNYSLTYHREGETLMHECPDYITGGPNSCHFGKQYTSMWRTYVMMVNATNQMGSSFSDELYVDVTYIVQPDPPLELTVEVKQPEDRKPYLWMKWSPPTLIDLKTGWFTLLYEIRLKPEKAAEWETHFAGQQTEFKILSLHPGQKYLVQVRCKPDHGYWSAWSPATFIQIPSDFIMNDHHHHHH
The experiment in a line: SPR Biacore. Summed up:
as §1

B1: Ab12 (antibody, V domains shown)
VH: DVQLQESGPGLVKPSQSLSLTCTVTGYSITSDYAWNWIRQFPGNKLEWMGYIGYSGRTSFNPSLKSRISITRDTSKNQFFLQLNSVTTEDTATYYCARGGFAMDYWGQGTSVTVSS
VL: QIVLTQSPGIMSASPGEKVTMTCSASSSVTYMYWYQQKPRSSPKPWIYLTSNLASGVPARFSGSGSGTSYSLTISSMEAEDGATYYCQQWSSTPPLTFGGGTKLELN
notes: murine monoclonal, isotype G2a; reported as PRLR agonist; also called murine Ab12
Consider B1, for which, in test [1], the Kd (usually the equilibrium constant for the complex coming apart) was found to be 6.6 nM, the koff (usually the rate constant with which the complex falls apart) was 0.00186 s⁻¹ and the kon (commonly the rate constant with which the complex forms) turned out to be 282000 M⁻¹ s⁻¹. Besides, the “Baf3-mPRLR proliferation IC50” value in test [2] is above 30 µg/mL. The “Baf3-cyPRLR proliferation IC50” value in test [3] is above 30 µg/mL.

B2: Ab6 (antibody, V domains shown)
VH: QVQLQQPGAELVMPGSSVKLSCKASGYTFTTYWMHWVKQRPGQGLEWIGEIDPSDSYSNYNQKFKDKATLTVDKSSSTAYMQLSSLTSEDSAVYYCARNGGLGPAWFSYWGQGTLVTVSA
VL: DIVMTQSQKFMSTTVGDRVSITCKASQYVGTAVAWYQQKPGQSPKLLIYSASNRYTGVPDRFTDSGSGTDFTLTISNLQSEDLADYFCQQYSSYPWTFGGGTKLEIK
notes: murine monoclonal, isotype G1; also called murine Ab6
In test [4], B2 yielded a Kd of 635 nM, a koff of 0.394 s⁻¹ and a kon of 622000 M⁻¹ s⁻¹. In addition, in test [5], the Kd amounted to 0.807 nM, the koff is 0.00109 s⁻¹ and the kon was determined as 1.36e+06 M⁻¹ s⁻¹. In test [1], this molecule yielded a Kd of 0.45 nM, a dissociation rate constant (koff) of 0.000576 s⁻¹ and a kon of 1.28e+06 M⁻¹ s⁻¹. Further, in test [2], the “Baf3-mPRLR proliferation IC50” value is above 30 µg/mL. For the same molecule, the “Baf3-cyPRLR proliferation IC50” value in test [3] is 0.44 µg/mL.

B3: Ab5 (antibody, V domains shown)
VH: QVQLQQPGAELVRPGTSVKLSCKASGYTFTSFWMHWVKQRPGQGLEWIGVIDPSDTYTNYNQKFKGKATLTVDTSSSTAYMQLSSLTSEDSAVYYCARGDYSNWFTYWGQGTLVTVSA
VL: DVVMTQTPLSLPVSLGDQASISCRSSQRLVHSNGNTYLHWYLQKPGQSPKLLIYKVSNRFSGVPDRFSGSGSGTDFTLKISRVEAEDLGVYFCSQSTHVPWTFGGGTKLEIK
notes: murine monoclonal, isotype G2a; also called murine Ab5
On to B3, for which, in test [4], binding was put at a Kd of 14.4 nM, the koff is 0.00291 s⁻¹ and the kon is 202000 M⁻¹ s⁻¹. For the same molecule, in test [5], binding was put at a Kd of 0.7 nM, the koff is 0.000235 s⁻¹ and the kon was found to be 336000 M⁻¹ s⁻¹. Besides, in test [1], the Kd came out at 0.572 nM, the koff amounted to 0.000203 s⁻¹ and the kon was 355000 M⁻¹ s⁻¹. For the same molecule, the “Baf3-mPRLR proliferation IC50” value in test [2] turned out to be 1.03 µg/mL. Besides, the “Baf3-cyPRLR proliferation IC50” value in test [3] was 0.38 µg/mL.

B4: Ab7 (antibody, V domains shown)
VH: QVQLQQPGAELVMPGTSVKLSCKASGYTFTSYWIHWVKQRPGQGLEWIGEIDPSDSYTNYNQKFKGKATLTVDRSSSTAYMQLSSLTSEDSAVYYCGRSFFTNWFAYWGQGTLVTVSA
VL: DVVMTQTPLSLPVSLGDQASISCRSSQSLVHSNGNTYLHWYLQKPGQSPKLLIYKVSNRFSGVPDRFSGSGSGTDFTLKINRVEAEDLGVYFCSQSTHVPFTFGSGTKLEIK
notes: murine monoclonal, isotype G1; also called murine Ab7
In test [4], B4 showed a Kd of 41.7 nM, a koff of 0.0035 s⁻¹ and a kon of 84000 M⁻¹ s⁻¹. For the same molecule, in test [5], the Kd was found to be 0.127 nM, the koff was found to be 3.29e-05 s⁻¹ and the kon was 259000 M⁻¹ s⁻¹. In test [1], this molecule returned a Kd of 0.153 nM, a koff of 4.27e-05 s⁻¹ and a kon of 280000 M⁻¹ s⁻¹. Further, the “Baf3-mPRLR proliferation IC50” value in test [2] came out at 3.55 µg/mL. The “Baf3-cyPRLR proliferation IC50” value in test [3] turned out to be 0.3 µg/mL.

B5: Ab11 (antibody, V domains shown)
VH: EVKLVESGGGLVQPGGSLKLSCAASGFTFSDYYMFWVRQTPEKSLEWVAYISNGGGSTYYPDTVKGRFTISRDNAKNTLYLQMSRLKSEDTAMYYCSRQLFYYGSRGAMGYWGQGTSVTVSS
VL: DVLMTQTPLSLPVSLGDQASISCRSSQSIVHSNGNTYLEWYLQKPGQSPKLLIYKVSNRFSGVPDRFSGSGSGTDFTLKISRVEAEDLGVYYCFQGSHVPFTFGSGTKLEIK
notes: murine monoclonal, isotype G1; also called murine Ab11
Consider B5, for which, in test [1], binding was characterised by a dissociation constant (Kd) of 69.2 nM, the koff stood at 0.0211 s⁻¹ and the kon amounted to 305000 M⁻¹ s⁻¹. Also, in test [2], the “Baf3-mPRLR proliferation IC50” value was determined as 18.5 µg/mL. Moreover, the “Baf3-cyPRLR proliferation IC50” value in test [3] was 1.2 µg/mL.

B6: Ab13 (antibody, V domains shown)
VH: QVQLQQPGAELVRPGTSVKLSCKASGYTFTSFWMHWVKQRPGQGLEWIGVIDPSDSHTNYNQKFKGKATLTVNTSSSTAYMHLSSLTSEDSAVYYCARGDYSNWFTYWGQGTLVTVSA
VL: DVVMTQTPFSLPVSLGDQASISCRSSQSLVHSNGNTYLHWYLQKPGQSPKLLIYKVSNRFSGVPDRFSGSGSGTDFTLKISRVEAEDLELYFCSQSTHVPWTFGGGTKLEIK
notes: murine monoclonal, isotype G2a; also called murine Ab13
In test [1], B6 showed a Kd of 0.997 nM, a koff of 0.000431 s⁻¹ and a kon of 433000 M⁻¹ s⁻¹. In addition, in test [2], the “Baf3-mPRLR proliferation IC50” value was found to be 4.69 µg/mL. Besides, in test [3], the “Baf3-cyPRLR proliferation IC50” value came to 0.85 µg/mL.

B7: Ab10 (antibody, V domains shown)
VH: EVQLHQSGPELVKPGASVKISCKASGYTFTDYNMHWMKQSHGKSLEWIGYFYPYNGGTGYNQEFKNKATLTVDISSSTAYMELRRLTSEDSAVYYCARGGWGIYYAMDYWGQGTSVTVSS
VL: DIQMTQSPASLSASVGETVTITCRASENIYSYLTWYQQKQGKSPQLLVYNAKTLAEGVPSRFSGSGSGTQFSLKINSLQPEDFGSYHCQHHSVTPLTFGAGTKLELK
notes: murine monoclonal, isotype G2a; also called murine Ab10
In the case of B7, in test [1], binding was put at a Kd of 1.41 nM, the koff turned out to be 0.000228 s⁻¹ and the kon is 161000 M⁻¹ s⁻¹. Besides, the “Baf3-mPRLR proliferation IC50” value in test [2] was above 30 µg/mL. In addition, in test [3], the “Baf3-cyPRLR proliferation IC50” value was above 10 µg/mL.

(Values after patent US20170022281A1 (AbbVie / Abbott, published 2017).)
